Source: doi:10.1101/2023.03.02.530591

Target: Human Macrophage Galactose Lectin (MGL) isoform 2 extracellular domain (residues Q85-H316) (human)
Assay: SAXS

Human Macrophage Galactose Lectin (MGL) isoform 2 extracellular domain (residues Q85-H316) (domain or fragment)
stoichiometry N: 3
